Read-outs that look alike come from different tables or passages of the source. Non-standard residues stand in square brackets, D forms with d. No end group written: not given here. 2Nal = N[C@@H](Cc1ccc2ccccc2c1)C(=O)O
Legend:
CRP [1] = biological target: T1, CRP (Homo sapiens, UniProt P02741); conditions: rats undergoing acute myocardial infarction, human CRP injected; reference (24); cited from earlier work
T1 sequence (P02741 19-224): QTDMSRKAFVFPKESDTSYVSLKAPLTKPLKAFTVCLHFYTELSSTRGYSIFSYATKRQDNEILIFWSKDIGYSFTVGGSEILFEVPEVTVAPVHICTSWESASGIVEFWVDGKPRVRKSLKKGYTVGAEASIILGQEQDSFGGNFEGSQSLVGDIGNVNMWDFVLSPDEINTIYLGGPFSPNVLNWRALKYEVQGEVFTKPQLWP

CRP [2] = biological target: T1, CRP; experiment: Ability of resins to bind endogenous CRP from serum (LDS gel / Western blot of supernatant and eluate); format: binding; design: from tissue; host or cells: serum; conditions: two hours at room temperature, FIG. 1; for CRP detected in the supernatant after incubation with resin: 90 μl resin, 300 μl serum containing endogenous CRP; for binding of endogenous CRP by the resin: serum containing endogenous CRP
Description: Several of the sequences identified in Example 2 were synthesized at gram scale to assay their ability to bind CRP. 90 μl of resin of ligands eSFAZZ (SEQ ID NO: 3), hGYIGL (SEQ ID NO: 8), vLRPWK (SEQ ID NO: 4), wZQKNH (SEQ ID NO: 7) and kZPDLH (SEQ ID NO: 6) (Z denotes 2′naphthylananine, small letters denote D amino acids, and capital letters denote L amino acids) were incubated with 300 μl of serum containing endogenous CRP, for two hours at room temperature. The supernatant was collected and the protein bound to the beads was eluted by incubation at 70° C. for ten minutes in 2×LDS sample buffer (Invitrogen). 10 μl of incubation supernatant or resin eluate was loaded per lane in an LDS gel and the proteins transferred to a nitrocellulose membrane. CRP was detected on the membrane using mouse anti-human CRP monoclonal antibody CRP-8 (Cat#C-1688, Lot# 094K4803), C=9.1 mg/ml (Sigma-Aldrich, St. Louis, Mo.) and affinity purified phosphatase labeled goat anti mouse IgG(□) human serum adsorbed (Cat#075-1802, Lot# XE084) (KPL, Gaithersburg, Md., USA).
This was confirmed by the detection of CRP in the eluates from these resins. The opposite is true for the remaining resins. […] It should be noted that all three of these ligands have a positively charged amino acid at the carboxy terminus (K or H) while none of the negative resins have the positively charged residue.

CRP [3] = biological target: T1, CRP; experiment: Equilibrium capacity for binding CRP spiked into plasma or citrate buffer (unbound CRP measured by ELISA); conditions: 80 μl resin, two hours at room temperature
Description: The equilibrium capacity of wZQKNH (SEQ ID NO: 7) for binding CRP was determined with CRP spiked into 200 μl of plasma or citrate buffer. 80 μl of wZQKNH resin was mixed with the spiked materials and allowed to incubate for two hours at room temperature. The supernatant was collected and CRP remaining in the supernatant (unbound fraction) was measured by ELISA. The apparent dissociation constant (the reciprocal of the association constant) for CRP bound from buffer was 12.8×10^−9 M whereas the apparent dissociation constant for CRP bound from plasma was 370×10^−9M, indicating a level of interference in plasma, possibly arising from CRP associating with other plasma proteins which may alter its dissociation constant.

[4] = biological target: Human CRP (C-reactive protein) (human) (UniProt P02741); experiment: Equilibrium binding of CRP spiked into plasma to 80 ul wZQKNH resin, 2 h at room temperature; unbound CRP measured by ELISA; apparent KD
[5] = biological target: Human CRP (C-reactive protein) (human) (UniProt P02741); experiment: Equilibrium binding of CRP spiked into citrate buffer to 80 ul wZQKNH resin, 2 h at room temperature; unbound CRP measured by ELISA; apparent KD

| Molecule | CRP detected in the supernatant after incubation with resin (CRP [2]) | binding of endogenous CRP by the resin (CRP [2]) | also measured |
| --- | --- | --- | --- |
| C[N+](C)(C)CCOP(=O)([O-])OCCCCCCOP(=O)([O-])OCC[N+](C)(C)C [1,6-bis(phosphocholine)-hexane] |  |  | increase in infarct size and cardiac dysfunction produced by human CRP (CRP [1]): abrogate |
| Lys-Nal-Pro-Asp-Leu-His ([dK][2Nal]PDLH) [kZPDLH, hexamer peptide ligand on Toyopearl resin; Z denotes 2′naphthylalanine] | No CRP was detected | appear to bind endogenous CRP |  |
| Trp-Nal-Gln-Lys-Asn-His ([dW][2Nal]QKNH) [wZQKNH, hexamer peptide ligand on Toyopearl resin; Z denotes 2′naphthylalanine] | No CRP was detected | appear to bind endogenous CRP | Kd (CRP [3]; CRP spiked into citrate buffer, read-out: apparent dissociation constant for CRP bound from buffer): 12.8 nM; Kd (CRP [3]; CRP spiked into plasma, read-out: apparent dissociation constant for CRP bound from plasma): 370 nM |
| VLRPWK [hexamer peptide ligand on Toyopearl resin] | No CRP was detected | appear to bind endogenous CRP |  |
| wZQKNH (SEQ ID NO: 7) (peptide) |  |  | Kd [4]: 370 nM; Kd [5]: 12.8 nM |
